This is an account of results in FireProtDB (doi:10.1016/j.bbapap.2007.05.016).

For this data set the following is noted: Streptomyces sp. (strain N174), Thermal, Fluorescence, reversible: No, whole UniProt chain shown.

Several values for one entry are separate records, joined by “and”; a condition that tells them apart may be missing. Identical values can stand only once.

B1: Chitosanase wild type, P33665 (protein)
chain: MHSQHRTARIALAVVLTAIPASLATAGVGYASTQASTAVKAGAGLDDPHKKEIAMELVSSAENSSLDWKAQYKYIEDIGDGRGYTGGIIGFCSGTGDMLELVQHYTDLEPGNILAKYLPALKKVNGSASHSGLGTPFTKDWATAAKDTVFQQAQNDERDRVYFDPAVSQAKADGLRALGQFAYYDAIVMHGPGNDPTSFGGIRKTAMKKARTPAQGGDETTYLNAFLDARKAAMLTEAAHDDTSRVDTEQRVFLKAGNLDLNPPLKWKTYGDPYVINS
By Tm is commonly meant the temperature at which the thermal transition is half complete. B1: the melting temperature (Tm) (pH 4.5, Sodium acetate 50 mM) was 53.5 °C and 54 °C; the Tm (pH 4.5, Sodium acetate 150 mM) is 44.4 °C; the midpoint of thermal melting (Tm) (pH 4.75, Sodium phosphate 50 mM) was 53.7 °C; the melting temperature (Tm) (pH 7, Sodium phosphate 50 mM) turned out to be 41.3 °C.
